Experiment: yeast display, Sf9 membrane polyspecificity reagent, FACS + sequencing; frameworks hold sequencing errors
How it was run: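 Polyreactivity labels are assigned by the sorting gate from which each nanobody was recovered. The gates were low and high (top ~1%), set on anti-HA fluorescence for expression and streptavidin fluorescence for reagent binding. Before sorting, galactose-induced (36–48 hours) yeast display cells were stained for 1 hour at 4 °C with 10% biotinylated, detergent-solubilized Sf9 membrane reagent.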
For “QVQLVESGGGLVQAGGSLRLSCAASGSTFHGYDMGWYRQAPGKERELVAAITSSGDDTYYADSEKGRFTISLDNAKNTVYLQMNSLKPEDTAVYYCAAEYTEGYTHDYWGQGTQVTVSS”, the “polyreactivity (PSR sort gate)” value was “low polyreactivity”.
In the case of “QVQLVESGGGLVQAGGSLRLSCAASGSTFHLYAMGWSRQAPGKERELVAVITSGDSTSYADSVKGRFTISRDNAKNTVYLQMNSLKPEDTAVYYCAADSYSGYNYWGQGTQVTVSS”, the “polyreactivity (PSR sort gate)” value is reported as “low polyreactivity”.
With “QVQLVESGGGLVQAGGSLRLSCAASGSTFHRYAKGSYRQAPGKERELVARIIGSGGSTYYADSVKGRFTISRDNAKNTVYLQMNSLKPEDTAVYYCAADGLYYTYGYDYWGQGTQVTVSS” the “polyreactivity (PSR sort gate)” value was “low polyreactivity”.
With “QVQLVESGGGLVQAGGSLRLSCAASGSTFHRYALGWYRQAPGKERELVATITSRGGITYYADSVKGRFTISRDNAKNTVYLQMNSLKPEDTAVYYCYRYDYWGQGTQVTVSS” the “polyreactivity (PSR sort gate)” value was “low polyreactivity”.
With “QVQLVESGGGLVQAGGSLRLSCAASGSTFHWYVMGWYRQAPGKERELVAAITWSGGSTYYADSVKGRLTISRDNAKNTVYLQMNSLKPEDTAVYYCNAVFWIWNAGYDYWGQGTQVTVSS” the “polyreactivity (PSR sort gate)” value was “low polyreactivity”.
With “QVQLVESGGGLVQAGGSLRLSCAASGSTFHYYAMGWYRQAPGKERELVAAISQSGSGTYYADSVKGRFTISRDNAKNTVYLLMNSLKPEDTAVYYCAKDITGLSRYRRDYWGQGTQVTVSS” the “polyreactivity (PSR sort gate)” value was “low polyreactivity”.
With “QVQLVESGGGLVQAGGSLRLSCAASGSTFHYYAMGWYRQAPGKERELVAAISSGGRTNYADSVKGRFTISRDNAKNTVYLQMNSLKPEDTAVYYCAARWSYTKGEFDYWGQGTQGTVSS” the “polyreactivity (PSR sort gate)” value was “high polyreactivity”.
With “QVQLVESGGGLVQAGGSLRLSCAASGSTFHYYVMGWYRQAPGKERELDAAIRRSGGTTYYADSVKGRFTISRDNAKNTVYLQMNSLKPEDTAVYYCAAYFFHYHFYQAAYDYWGQGTQVTVSS” the “polyreactivity (PSR sort gate)” value was “low polyreactivity”.
For “QVQLVESGGGLVQAGGSLRLSCAASGSTFIANAMGWYRQAPGKEREFVATISRRGGSTYYADSVKGRFTISRDNAKNTVYLQMNSLKPEDTAVYYCAARPLTYIRFRYYYWGQGTQVSVSS”, the “polyreactivity (PSR sort gate)” value was “high polyreactivity”.
With “QVQLVESGGGLVQAGGSLRLSCAASGSTFIAYTMGWYRQAPGKERELVAAISGTGGTTYADSVKGRFTISRDNAKNTVYLQMNSLKPEDTAVYYCAAQYRYTYWGQGTQVTVSS” the “polyreactivity (PSR sort gate)” value was “low polyreactivity”.
With “QVQLVESGGGLVQAGGSLRLSCAASGSTFIDYAMGWYRQAPGKERELVAAITWSGSSTYYADSVKGRFTISRDNAKNTVYLQMNSLKPEDTAVYYCAARYWYQSYHTYGYYSWGQGTQVTVSS” the “polyreactivity (PSR sort gate)” value was “low polyreactivity”.
For “QVQLVESGGGLVQAGGSLRLSCAASGSTFIDYAMGWYRQAPGKERELVAGGSTNYADSVKGRFTISRDNAKNTVYLQMNSLKPEYTAVYYCNADALLYPYWGFDYWGQGTQVTVSS”, the “polyreactivity (PSR sort gate)” value was “low polyreactivity”.
For “QVQLVESGGGLVQAGGSLRLSCAASGSTFIDYDMGWYRQAPGKERELVAAITSSGSTYYADSVKGRFTISRDNAKNTVYLQMNSLKPEDTAVYYCNARVGPELHDYWGQGTQVTVSS”, the “polyreactivity (PSR sort gate)” value was “low polyreactivity”.
For “QVQLVESGGGLVQAGGSLRLSCAASGSTFIDYGMGWYRQAPGKERELVAAIDLDSGDTYYADSVKGRFTISRENAKNTVYLQMNSLKPEDTAVYYCAAQYWYRYNYWGQGTQVTVSS”, the “polyreactivity (PSR sort gate)” value was “low polyreactivity”.
With “QVQLVESGGGLVQAGGSLRLSCAASGSTFIENAMGWYRQAPGKERELVAAINRGGTTYYADSVKGRFTISRDNAKNTVYLQMNSLKPEDTAVYYCAADDPSYANRFIHDYWGQGTHVTVSS” the “polyreactivity (PSR sort gate)” value was “low polyreactivity”.
With “QVQLVESGGGLVQAGGSLRLSCAASGSTFIGNAMGWYRQAPGKERELVAAISRTGGSTYADSVKGRFTISRDNAKNTVYLQMNSLKPEDTAVYYCAAKYYYIYYYWGQGTQVTVSS” the “polyreactivity (PSR sort gate)” value was “high polyreactivity”.
With “QVQLVESGGGLVQAGGSLRLSCAASGSTFIGNAMGWYRQAPGKERELVAAITRSGGSTFYADSVKGRFTISRDNAKNTVYLQMNSLKPEDTAVYYCAARNGAYPALTAGDYWGQGTQVTVSS” the “polyreactivity (PSR sort gate)” value was “high polyreactivity”.
In the case of “QVQLVESGGGLVQAGGSLRLSCAASGSTFIGNAMGWYRQAPGKERELVAAITSSGGSTYYADSVKGRFTISRDNAKNTVYLQLNSLKPEDTAVYYCAAKTWARGHYGYQARSNYWGQGTQVTVSS”, the “polyreactivity (PSR sort gate)” value is reported as “high polyreactivity”.
For “QVQLVESGGGLVQAGGSLRLSCAASGSTFIGYVMGWYRQAPGKERELVAAISWTGSNKYYADSVKGRFTISRDNAKNTVYLQMNSLKPEDTAVYYCNARSFAPYKNYDYWGQGTQVTVSS”, the “polyreactivity (PSR sort gate)” value was “low polyreactivity”.
In the case of “QVQLVESGGGLVQAGGSLRLSCAASGSTFINYARGWYSQAPGKERELVAVITSDDGSTYDADSVKGRFTISRDNAKNTVYLQMNSLKPEDTAVYYCAAYYYDQRYRPGPWYDYWGQGTQVTVSS”, the “polyreactivity (PSR sort gate)” value is reported as “low polyreactivity”.
With “QVQLVESGGGLVQAGGSLRLSCAASGSTFIPNTMGWYRQAPGKERELVAAISRRGGSTNYADSVKGRFTISRDNAKNTVYLQMNSLKPEDTAVYYCAAVSPRRYRYDYWGQGTQVTVSS” the “polyreactivity (PSR sort gate)” value was “high polyreactivity”.
In the case of “QVQLVESGGGLVQAGGSLRLSCAASGSTFIPYAMGWYRQAPGKERELVAAIRGGDGSTYYADSVKGRFTISRDNAKNTVYLQMNSLKPEDTAVYYFAADTVITAYFDRFWRYNYWGQGTQVTVSS”, the “polyreactivity (PSR sort gate)” value is reported as “low polyreactivity”.
With “QVQLVESGGGLVQAGGSLRLSCAASGSTFIPYAMGWYRQAPGKERELVAAISFNDGITYYADSVKGRFKISRDNAKNTVYLQMNSLKPEDTAVYYCAAEDWSDYPYGMDYWGQGTQVTVSS” the “polyreactivity (PSR sort gate)” value was “high polyreactivity”.
With “QVQLVESGGGLVQAGGSLRLSCAASGSTFIRNAMGWYRPAPGKERELVAAISSSGGRTYYADSVKGRFTISRDNAKNTVYLQMNSLKPEDTAVYYCAARNARYVHTMEYWGQGTQVTVSS” the “polyreactivity (PSR sort gate)” value was “high polyreactivity”.
In the case of “QVQLVESGGGLVQAGGSLRLSCAASGSTFISYAMGWYRQAPGKERELVAAIRYRDGRTYYADSVKGRFTNSRDNAKNTVYLQMISLKPEDTAVYYCAAKYRGLYSGMYYWGQGTQVTVSS”, the “polyreactivity (PSR sort gate)” value is reported as “high polyreactivity”.
With “QVQLVESGGGLVQAGGSLRLSCAASGSTFISYDMGWYRQAPGKERELVADITSVGGSTYYADSVKGRFTISRDNAKNTVYLQMNSLKPEDTAVYYCNAEAEWEEEGGSWGQGTQVTVSS” the “polyreactivity (PSR sort gate)” value was “low polyreactivity”.
For “QVQLVESGGGLVQAGGSLRLSCAASGSTFIVNAMGWYRQAPGKERELVATISGGDSTDYADSVKGRFTISRDNAKNTVYLQMNSLKPEDTAVYYCNSDVHQYYFTPYDYWGQGTQVTVSS”, the “polyreactivity (PSR sort gate)” value was “low polyreactivity”.
With “QVQLVESGGGLVQAGGSLRLSCAASGSTFIVYAMGWYRQAPGKERELVASITWRGGSTYYADSVKGRFTISRDNAKNTVYFQMNSLKPEDTAVYYCARGYETTNYQKFYITDDGDYWGQGTQVTVSS” the “polyreactivity (PSR sort gate)” value was “low polyreactivity”.
With “QVQLVESGGGLVQAGGSLRLSCAASGSTFIWNAMGSYRQAPGKERELVAAISSGGSTYYADSVKGRFTISRDNAKNTVYLQMNSLKPEDTAVYYCAAEYVYNVWEQRYAVYSTDDYWGQGTQVTVSS” the “polyreactivity (PSR sort gate)” value was “low polyreactivity”.
With “QVQLVESGGGLVQAGGSLRLSCAASGSTFIWNAMGWYRQAPGKERELVATITGSGDRTTYADSVKGRFTISRDNAKNTVYLQMNSLKPEDTAVYYCAADAYRWWVRYDYWGQGTQVTVSS” the “polyreactivity (PSR sort gate)” value was “low polyreactivity”.
With “QVQLVESGGGLVQAGGSLRLSCAASGSTFIYNAMGWYRQAPGKERELVAAISSGGSTYYADSVKGRFTISRDNAKNTVYLQMNSLKPEDTAVYYCNAYRYRHYRVDYWGQGTQVTVSS” the “polyreactivity (PSR sort gate)” value was “low polyreactivity”.
With “QVQLVESGGGLVQAGGSLRLSCAASGSTFIYNTMGWYRQAPGKEREFVAAITQSGGDTYYADSVKGRFTISRDNAKNTVYLQMNSLKPEDTADYYCAAYWILNNFEMYYWGQGPQVTVSS” the “polyreactivity (PSR sort gate)” value was “low polyreactivity”.

— the nanobody polyreactivity screen of Harvey et al. (2022)
